# B1: CPEB3 Ribozyme (parent)
# chain: GGGGGCCACAGCAGAAGCGUUCACGUCGCGGCCCCUGUCAGAUUCUGGUGAAUCUGCGAAUUCUGCUGU
# Variants of: B1
# Assay: self-cleavage, relative activity (ratio to wild type); higher = more cleavage; co-transcriptional
row,Variant,self-cleavage
1,G17C C33G,0.171
2,G17A C32A,0.164
3,A16U A40U,0.415
4,A16U A40C,0.267
5,C18A U36G,0.145
6,G17A A51U,0.433
7,G17C C18A,0.118
8,G17C C18G,0.148
9,G17A G31A,0.158
10,G17U G58A,0.343
11,C18A A60C,0.0911
12,C18A A60G,0.195
13,A16U U67C,0.856
14,C18U A60U,0.318
15,C18U A60C,0.288
16,A16U C18U,0.301
17,A16U C18G,0.167
18,G17U C32G,0.135
19,G17U C32U,0.514
20,C18U A59U,0.445
21,C18U A59C,0.32
22,C18A A59U,0.123
23,C18A A59G,0.145
24,G17A U20A,0.0639

row,Variant,self-cleavage
1,G17A U20G,0.098
2,A16U U26G,0.461
3,A16U C24G,0.141
4,A16U C24U,0.337
5,C18A C27G,0.112
6,C18A C27U,0.12
7,G17C A52C,0.126
8,G17U U46G,0.599
9,G17U U46A,0.624
10,G17U A23U,0.714
11,C18G C54U,0.15
12,C18G C54G,0.0613
13,G17C G31A,0.111
14,C18A C24G,0.186
15,A16G U69C,1.08
16,C18A G56A,0.156
17,C18A G56U,0.133
18,G17U C27U,0.105
19,G17A U38A,0.241
20,C18A C35A,0.155
21,G17C U62C,0.194
22,A16U C27G,0.115
23,A16U C27U,0.125
24,A16U C27A,0.205

row,Variant,self-cleavage
1,G17U G65C,0.218
2,G17A C63U,0.313
3,C18G A52C,0.181
4,C18G A52G,0.244
5,G17C C66G,0.136
6,G17C C66A,0.145
7,C18G G65U,0.161
8,G17A G28C,0.0891
9,C18A U61C,0.158
10,A16U C32A,0.491
11,C18G G37A,0.119
12,C18U A51C,0.771
13,A16U G30U,0.261
14,C18A A52C,0.152
15,C18A C63A,0.119
16,A16U G41U,0.497
17,A16U G41A,0.411
18,C18A U55C,0.21
19,A16U G47C,0.906
20,A16U G47U,0.879
21,G17C G50C,0.111
22,G17A C24U,0.142
23,C18G C27U,0.0906
24,G17A C18U,0.122

row,Variant,self-cleavage
1,A16G U55A,0.659
2,A16G U55G,0.67
3,C18A A40C,0.197
4,G17C C35G,0.153
5,G17C C35U,0.15
6,G17C G65C,0.195
7,G17C A59G,0.122
8,G17C A59C,0.104
9,C18G U44C,0.125
10,C18G U44G,0.169
11,G17A U69A,0.703
12,G17C U38A,0.155
13,A16U U21C,0.322
14,A16U U21G,0.294
15,G17A A40G,0.344
16,C18A U44C,0.106
17,C18G G19C,0.0934
18,A16U C29U,0.117
19,A16U U69G,0.972
20,A16U U55C,0.539
21,A16U U55A,0.624
22,G17U C34A,0.195
23,C18A G68U,0.264
24,G17U G48A,0.748

row,Variant,self-cleavage
1,G17A A42G,0.286
2,C18G C39A,0.184
3,C18G C39U,0.196
4,C18G C39G,0.101
5,C18A U62A,0.133
6,C18A U62G,0.152
7,C18A U62C,0.141
8,C18G G28A,0.133
9,G17C C63A,0.162
10,G17C C22U,0.145
11,A16U G31U,0.295
12,A16U G31C,0.147
13,A16G U64C,0.513
14,G17C C32G,0.0951
15,A16U G37C,0.0966
16,A16U G17C,0.193
17,C18G A40G,0.122
18,G17U C54U,0.461
19,G17U C54A,0.188
20,A16U A52U,0.801
21,A16U A52C,0.856
22,C18A G19A,0.135
23,G17C U20C,0.157
24,C18G G56A,0.107

row,Variant,self-cleavage
1,C18G G56C,0.101
2,A16U U44G,0.767
3,G17C G68U,0.21
4,C18G G50C,0.201
5,A16U A59C,0.427
6,A16U A59G,0.909
7,G17A C27U,0.172
8,G17A C27G,0.134
9,G17A C27A,0.126
10,G17A U55A,0.195
11,G17A U55C,0.141
12,C18A A51C,0.164
13,C18G U62G,0.173
14,C18G C35A,0.0628
15,C18G A42C,0.124
16,G17C C39U,0.117
17,G17U G25U,0.121
18,G17U A42G,0.353
19,G17C U44A,0.24
20,G17C U44G,0.137
21,G17C U44C,0.141
22,A16U G68A,0.953
23,G17U C66U,0.412
24,G17U C66A,0.239

row,Variant,self-cleavage
1,C18A G37C,0.213
2,A16U C63U,0.732
3,A16U C63A,0.501
4,G17C G47U,0.149
5,G17C G47A,0.185
6,A16G U62G,0.593
7,C18G C24U,0.106
8,C18G C24G,0.107
9,G17C C54U,0.145
10,G17A A52C,0.431
11,G17C U61A,0.132
12,G17U G68C,0.818
13,G17U G68U,0.768
14,C18G A59C,0.149
15,G17A U62A,0.193
16,A16U G58U,0.814
17,C18U A40G,0.742
18,C18U A40U,0.378
19,G17A C35U,0.345
20,C18G U61A,0.223
21,G17U U36C,0.252
22,C18G U49A,0.259
23,G17C G48A,0.137

# — the RNAGym collection of RNA variant scans (doi:10.7554/elife.80360)
